Test results as given in patent US20050196844.

Test system: E. coli synthesized tau (352 residue isoform), non-phosphorylated

Row | Substance | in vitro kinase reaction, immunoblot with anti-PY18 and 4G10
1 | fyn tyrosine kinase (Upstate Biotechnologies) | fyn kinased tyr18 in vitro
2 | src tyrosine kinase (Upstate Biotechnologies) | Identical results were observed for src.
